Measurements from IntAct's records for PubMed 17127621.

B1: Basigin (Homo sapiens), P35613 (parent)
chain: MAAALFVLLGFALLGTHGASGAAGFVQAPLSQQRWVGGSVELHCEAVGSPVPEIQWWFEGQGPNDTCSQLWDGARLDRVHIHATYHQHAASTISIDTLVEEDTGTYECRASNDPDRNHLTRAPRVKWVRAQAVVLVLEPGTVFTTVEDLGSKILLTCSLNDSATEVTGHRWLKGGVVLKEDALPGQKTEFKVDSDDQWGEYSCVFLPEPMGTANIQLHGPPRVKAVKSSEHINEGETAMLVCKSESVPPVTDWAWYKITDSEDKALMNGSESRFFVSSSQGRSELHIENLNMEADPGQYRCNGTSSKGSDQAIITLRVRSHLAALWPFLGIVAEVLVLVTIIFIYEKRRKPEDVLDDDDAGSAPLKSSGQHQNDKGKNVRQRNSS
partner: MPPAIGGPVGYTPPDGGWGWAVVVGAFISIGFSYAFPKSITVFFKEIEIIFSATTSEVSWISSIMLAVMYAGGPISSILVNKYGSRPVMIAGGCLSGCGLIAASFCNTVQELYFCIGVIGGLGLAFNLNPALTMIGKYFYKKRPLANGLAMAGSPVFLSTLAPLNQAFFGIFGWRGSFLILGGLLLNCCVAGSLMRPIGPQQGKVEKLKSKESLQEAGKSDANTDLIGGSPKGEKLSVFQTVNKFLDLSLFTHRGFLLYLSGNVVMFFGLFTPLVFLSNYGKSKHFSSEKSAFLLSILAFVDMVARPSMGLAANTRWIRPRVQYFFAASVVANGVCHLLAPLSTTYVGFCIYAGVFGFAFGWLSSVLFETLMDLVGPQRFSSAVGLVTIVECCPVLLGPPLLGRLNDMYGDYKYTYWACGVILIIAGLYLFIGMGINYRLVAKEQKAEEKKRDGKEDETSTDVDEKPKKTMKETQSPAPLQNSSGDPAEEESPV
B2: Monocarboxylate transporter 1 (Rattus norvegicus (Rat)), P53987 (parent)
chain: B1 partner

Assays:
mot1_rat Slc16a1, P53987 [1] = variants of: B1; conditions: with mot1_rat Slc16a1, P53987
mot1_rat Slc16a1, P53987 [2] = variants of: B1; conditions: with mot1_rat Slc16a1, P53987; remark: listed apart in the source
basi_human BSG, P35613 [3] = variants of: B2; conditions: with basi_human BSG
basi_human BSG, P35613 [4] = variants of: B2; conditions: with basi_human BSG; remark: listed apart in the source

| Variant | effect of a mutation on the interaction (mot1_rat Slc16a1, P53987 [1]) | effect of a mutation on the interaction (mot1_rat Slc16a1, P53987 [2]) | effect of a mutation on the interaction (basi_human BSG, P35613 [3]) | effect of a mutation on the interaction (basi_human BSG, P35613 [4]) |
| --- | --- | --- | --- | --- |
| E334R | decreasing interaction strength | – | – | – |
| E334Q | decreasing interaction strength | with no effect | – | – |
| R86Q | – | – | with no effect | decreasing interaction strength |
| R86E | – | – | with no effect | decreasing interaction strength |
| R196E | – | – | disrupting interaction strength | – |
